Experimental data as given in patent US20220025008A1 (FAPON BIOTECH, published 2022).

B1: Mutation 1-35 (antibody)
heavy: QVRLQESGPSQVKPAQTLSLTCAISGFSVTTYYVDWVRHTPGKPPEWLAQMTKDGNAVHQPTIRSRLSITRDTSKSQVFLKLTGVTTEDTAVYYCVRGVIDFGPGLLVTVSSASTTPPKVYPLTSCCGDTSSSIVTLGCLVSSYMPEPVTVTWNSGALTSGVHTFPAILQSSGLYSLSSVVTVPASTSGAQTFICNVAHPASSTKVDKRVEPGCPDPCKHCRCPPPELPGGPSVFIFPPKPKDTLTISGTPEVTCVVVDVGQDDPEVQFSWFVDNVEVRTARTKPREEQFNSTFRVVSALPIQHQDWTGGKEFKCKVHNEGLPAPIVRTISRTKGQAREPQVYVLAPPQEELSKSTLSVTCLVTGFYPDYIAVEWQKNGQPESEDKYGTTTSQLDADGSYFLYSRLRVDKNSWQEGDTYACVVMHEALHNHYTQKSISKPPGK
light: QAVLTQPSSVSRSLGQTVSITCSGSSDQVGFGDYVNWFQLIPGSAPKTLIFGAYSRVRGVPDRFSGSRSGNTATLTINSLQAEDEADYYCGSPNSRGGYVFGSGTRLTVLSQPKSAPSVTLFPPSKEELDTNKATVVCLISDFYPGSVNVVWKADGSTINQNVKTTQASKQSNSKYAASSYLTLTGSEWKSKSSYTCEVTHEGSTVTKTVKPSECS
B2: Mutation 1-53 (antibody)
heavy: QVRLQESGPSQVKPAQTLSLTCAISGFSVTTYYVDWVRHTPGKPPEWLAQMTKDGNAVHNPTVRSRLSITRDTSKSQVFLKLTGVTTEDTAVYYCVRGVIDFGPGLLVTVSSASTTPPKVYPLTSCCGDTSSSIVTLGCLVSSYMPEPVTVTWNSGALTSGVHTFPAILQSSGLYSLSSVVTVPASTSGAQTFICNVAHPASSTKVDKRVEPGCPDPCKHCRCPPPELPGGPSVFIFPPKPKDTLTISGTPEVTCVVVDVGQDDPEVQFSWFVDNVEVRTARTKPREEQFNSTFRVVSALPIQHQDWTGGKEFKCKVHNEGLPAPIVRTISRTKGQAREPQVYVLAPPQEELSKSTLSVTCLVTGFYPDYIAVEWQKNGQPESEDKYGTTTSQLDADGSYFLYSRLRVDKNSWQEGDTYACVVMHEALHNHYTQKSISKPPGK
light: QAVLTQPSSVSRSLGQTVSITCSGSSDNVGFGDYINWFQLIPGSAPKTLIFGAYSRVRGVPDRFSGSRSGNTATLTINSLQAEDEADYYCGSGNSRNYVFGSGTRLTVLSQPKSAPSVTLFPPSKEELDTNKATVVCLISDFYPGSVNVVWKADGSTINQNVKTTQASKQSNSKYAASSYLTLTGSEWKSKSSYTCEVTHEGSTVTKTVKPSECS
B3: Mutation 1-45 (antibody)
heavy: QVRLQESGPSQVKPAQTLSLTCAISGFSITTYYIDWVRHTPGKPPEWLAQMTKDGNAVHQPTLRSRLSITRDTSKSQVFLKLTGVTTEDTAVYYCVRGLIDFGPGLLVTVSSASTTPPKVYPLTSCCGDTSSSIVTLGCLVSSYMPEPVTVTWNSGALTSGVHTFPAILQSSGLYSLSSVVTVPASTSGAQTFICNVAHPASSTKVDKRVEPGCPDPCKHCRCPPPELPGGPSVFIFPPKPKDTLTISGTPEVTCVVVDVGQDDPEVQFSWFVDNVEVRTARTKPREEQFNSTFRVVSALPIQHQDWTGGKEFKCKVHNEGLPAPIVRTISRTKGQAREPQVYVLAPPQEELSKSTLSVTCLVTGFYPDYIAVEWQKNGQPESEDKYGTTTSQLDADGSYFLYSRLRVDKNSWQEGDTYACVVMHEALHNHYTQKSISKPPGK
light: QAVLTQPSSVSRSLGQTVSITCSGSSDQVGFGDYINWFQLIPGSAPKTLIFGASSRIRGVPDRFSGSRSGNTATLTINSLQAEDEADYYCGSPNSRGGYVFGSGTRLTVLSQPKSAPSVTLFPPSKEELDTNKATVVCLISDFYPGSVNVVWKADGSTINQNVKTTQASKQSNSKYAASSYLTLTGSEWKSKSSYTCEVTHEGSTVTKTVKPSECS
B4: Mutation 1-43 (antibody)
heavy: QVRLQESGPSQVKPAQTLSLTCAISGFSVTTYYLDWVRHTPGKPPEWLAQMTKDGNAVHQPTVRSRLSITRDTSKSQVFLKLTGVTTEDTAVYYCVRGIIDFGPGLLVTVSSASTTPPKVYPLTSCCGDTSSSIVTLGCLVSSYMPEPVTVTWNSGALTSGVHTFPAILQSSGLYSLSSVVTVPASTSGAQTFICNVAHPASSTKVDKRVEPGCPDPCKHCRCPPPELPGGPSVFIFPPKPKDTLTISGTPEVTCVVVDVGQDDPEVQFSWFVDNVEVRTARTKPREEQFNSTFRVVSALPIQHQDWTGGKEFKCKVHNEGLPAPIVRTISRTKGQAREPQVYVLAPPQEELSKSTLSVTCLVTGFYPDYIAVEWQKNGQPESEDKYGTTTSQLDADGSYFLYSRLRVDKNSWQEGDTYACVVMHEALHNHYTQKSISKPPGK
light: QAVLTQPSSVSRSLGQTVSITCSGSSDNVGFGDYLNWFQLIPGSAPKTLIFGASSRLRGVPDRFSGSRSGNTATLTINSLQAEDEADYYCGSANSRGGYVFGSGTRLTVLSQPKSAPSVTLFPPSKEELDTNKATVVCLISDFYPGSVNVVWKADGSTINQNVKTTQASKQSNSKYAASSYLTLTGSEWKSKSSYTCEVTHEGSTVTKTVKPSECS
B5: Mutation 1-47 (antibody)
heavy: QVRLQESGPSQVKPAQTLSLTCAISGFSITTYYVDWVRHTPGKPPEWLAQMTKDGNAVHQPTIRSRLSITRDTSKSQVFLKLTGVTTEDTAVYYCVRGVIDFGPGLLVTVSSASTTPPKVYPLTSCCGDTSSSIVTLGCLVSSYMPEPVTVTWNSGALTSGVHTFPAILQSSGLYSLSSVVTVPASTSGAQTFICNVAHPASSTKVDKRVEPGCPDPCKHCRCPPPELPGGPSVFIFPPKPKDTLTISGTPEVTCVVVDVGQDDPEVQFSWFVDNVEVRTARTKPREEQFNSTFRVVSALPIQHQDWTGGKEFKCKVHNEGLPAPIVRTISRTKGQAREPQVYVLAPPQEELSKSTLSVTCLVTGFYPDYIAVEWQKNGQPESEDKYGTTTSQLDADGSYFLYSRLRVDKNSWQEGDTYACVVMHEALHNHYTQKSISKPPGK
light: QAVLTQPSSVSRSLGQTVSITCSGSSDQVGFGDYVNWFQLIPGSAPKTLIFGASSRVRGVPDRFSGSRSGNTATLTINSLQAEDEADYYCGSPNSRNYVFGSGTRLTVLSQPKSAPSVTLFPPSKEELDTNKATVVCLISDFYPGSVNVVWKADGSTINQNVKTTQASKQSNSKYAASSYLTLTGSEWKSKSSYTCEVTHEGSTVTKTVKPSECS
B6: Mutation 1-30 (antibody, V domains shown)
VH: QVRLQESGPSQVKPAQTLSLTCAISGFSLTTYYIDWVRHTPGKPPEWLAQMTKDGNAVHNPTVRSRLSITRDTSKSQVFLKLTGVTTEDTAVYYCVRGIIDWGPGLLVTVSS
VL: QAVLTQPSSVSRSLGQTVSITCSGSSDNVGFGDYINWFQLIPGSAPKTLIFGATSRIRGVPDRFSGSRSGNTATLTINSLQAEDEADYYCGSPNSRNYVFGSGTRLTVLS
B7: Mutation 1-40 (antibody, V domains shown)
VH: QVRLQESGPSQVKPAQTLSLTCAISGFSLTTYYLDWVRHTPGKPPEWLAQMTKDGNAVHQPTVRSRLSITRDTSKSQVFLKLTGVTTEDTAVYYCVRGVIDWGPGLLVTVSS
VL: QAVLTQPSSVSRSLGQTVSITCSGSSDNVGFGDYLNWFQLIPGSAPKTLIFGAYSRLRGVPDRFSGSRSGNTATLTINSLQAEDEADYYCGSPNSRNYVFGSGTRLTVLS
B8: Mutation 1-41 (antibody, V domains shown)
VH: QVRLQESGPSQVKPAQTLSLTCAISGFSVTTYYIDWVRHTPGKPPEWLAQMTKDGNAVHNPTVRSRLSITRDTSKSQVFLKLTGVTTEDTAVYYCVRGIIDWGPGLLVTVSS
VL: QAVLTQPSSVSRSLGQTVSITCSGSSDNVGFGDYINWFQLIPGSAPKTLIFGAYSRVRGVPDRFSGSRSGNTATLTINSLQAEDEADYYCGSGNSRNYVFGSGTRLTVLS
B9: Mutation 1-48 (antibody, V domains shown)
VH: QVRLQESGPSQVKPAQTLSLTCAISGFSLTTYYIDWVRHTPGKPPEWLAQMTKDGNAVHQPTIRSRLSITRDTSKSQVFLKLTGVTTEDTAVYYCVRGIIDWGPGLLVTVSS
VL: QAVLTQPSSVSRSLGQTVSITCSGSSDQVGFGDYVNWFQLIPGSAPKTLIFGATSRIRGVPDRFSGSRSGNTATLTINSLQAEDEADYYCGSPNSRGGYVFGSGTRLTVLS
B10: Mutation 1-44 (antibody, V domains shown)
VH: QVRLQESGPSQVKPAQTLSLTCAISGFSVTTYYVDWVRHTPGKPPEWLAQMTKDGNAVHNPTLRSRLSITRDTSKSQVFLKLTGVTTEDTAVYYCVRGLIDWGPGLLVTVSS
VL: QAVLTQPSSVSRSLGQTVSITCSGSSDNVGFGDYVNWFQLIPGSAPKTLIFGASSRVRGVPDRFSGSRSGNTATLTINSLQAEDEADYYCGSANSRNYVFGSGTRLTVLS
B11: Mutation 1-50 (antibody, V domains shown)
VH: QVRLQESGPSQVKPAQTLSLTCAISGFSLTTYYVDWVRHTPGKPPEWLAQMTKDGNAVHQPTLRSRLSITRDTSKSQVFLKLTGVTTEDTAVYYCVRGLIDWGPGLLVTVSS
VL: QAVLTQPSSVSRSLGQTVSITCSGSSDQVGFGDYINWFQLIPGSAPKTLIFGATSRVRGVPDRFSGSRSGNTATLTINSLQAEDEADYYCGSANSRGGYVFGSGTRLTVLS
B12: Mutation 1-46 (antibody, V domains shown)
VH: QVRLQESGPSQVKPAQTLSLTCAISGFSITTYYLDWVRHTPGKPPEWLAQMTKDGNAVHNPTIRSRLSITRDTSKSQVFLKLTGVTTEDTAVYYCVRGVIDWGPGLLVTVSS
VL: QAVLTQPSSVSRSLGQTVSITCSGSSDQVGFGDYLNWFQLIPGSAPKTLIFGASSRLRGVPDRFSGSRSGNTATLTINSLQAEDEADYYCGSPNSRGGYVFGSGTRLTVLS

Molecular target: T1, Recombinant NT antigen (N-terminal pro-brain natriuretic peptide, NT-proBNP) (human, UniProt P16860 27-102)
T1 construct: domain: N-terminal pro-brain natriuretic peptide (NT-proBNP); also called recombinant NT protein; N-terminal pro-B-type natriuretic peptide
T1 sequence (looked up): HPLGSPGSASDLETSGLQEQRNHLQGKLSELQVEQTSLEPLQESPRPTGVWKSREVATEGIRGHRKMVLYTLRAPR
Assay: indirect ELISA, KD calculated from half-max OD at 4 coating concentrations
Procedure, shortened: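 Plates coated overnight at 4 °C with recombinant NT antigen at 3, 1.5, 0.75 or 0.375 μg/ml, blocked with 20% BSA. Antibody, 2-fold dilutions from 1000 to 0.977 ng/ml, was incubated 30 min at 37 °C, then detected with HRP anti-IgG, OD450/630. KD was derived from half-max OD across coating levels.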

B1 and B2 are within 1.5-fold of each other in Kd: 1.51 nM for the first, 2.06 nM for the second.

Going from B3 to B4, the Kd rises from 1.53 nM to 2.93 nM (1.9-fold). The first binds more tightly here.

B5 and B6 are within 1.5-fold of each other in Kd: 2.79 nM for the first, 2.66 nM for the second.

B7 and B8 are within 1.5-fold of each other in Kd: 3.47 nM for the first, 2.82 nM for the second.

First: B9
Second: B10
The Kd of the first is 1.6-fold higher: 2.02 nM for the first, 1.26 nM for the second.

Going from B11 to B12, the Kd rises from 2.16 nM to 3.49 nM (1.6-fold).
